Data set [1] can be described thus: Solubility of synthesized peptides. As to conditions: when synthesized and experimentally tested. It is filed as physicochemical.
In data set [2] the target is LVEAVY tracer (synthetic construct). As to conditions: cited from earlier work.
The target of a further data set is T1, Cdc37 (Homo sapiens, UniProt Q16543).
T1 sequence (Q16543 1-378): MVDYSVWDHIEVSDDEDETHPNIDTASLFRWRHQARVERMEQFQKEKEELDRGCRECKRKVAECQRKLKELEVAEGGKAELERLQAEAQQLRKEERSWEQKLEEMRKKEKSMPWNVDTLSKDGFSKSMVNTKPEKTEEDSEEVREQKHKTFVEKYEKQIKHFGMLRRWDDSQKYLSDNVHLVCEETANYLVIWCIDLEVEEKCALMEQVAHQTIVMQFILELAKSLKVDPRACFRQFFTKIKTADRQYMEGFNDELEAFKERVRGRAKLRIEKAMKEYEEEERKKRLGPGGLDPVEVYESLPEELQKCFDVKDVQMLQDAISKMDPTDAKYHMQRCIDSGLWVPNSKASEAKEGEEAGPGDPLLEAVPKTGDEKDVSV
Kind of data set: 19F T2 filter NMR binding to Cdc37. The conditions noted are these: 19F-peptides 20 μM, increasing Cdc37 (0.5, 1, 2, 4 μM).

Data set [3] has as its target T2, Hsc70 SBD construct (residues 395-509) (human, UniProt P11142 395-509). Kind of data set: fluorescence polarisation.
The target of data set [4] is T2, Hsc70 SBD construct (residues 395-509). Kind of data set: fluorescence polarisation. This is another data set of the same source. On the technique in general: Fluorescence polarisation rises when a labelled molecule tumbles more slowly, as on binding a larger partner.
Data set [5] shares this target. Kind of data set: fluorescence polarisation. This is another data set of the same source.

Ends that are not written are not given here. Ahx = NCCCCCC(=O)O

Broadly, the Kd is the constant that tells how readily two partners part at equilibrium. For orientation: Ki means the dissociation constant of the complex between target and ligand, obtained from inhibition or displacement. Low values mean higher affinity, high ones lower affinity.

T2 sequence (P11142 395-509): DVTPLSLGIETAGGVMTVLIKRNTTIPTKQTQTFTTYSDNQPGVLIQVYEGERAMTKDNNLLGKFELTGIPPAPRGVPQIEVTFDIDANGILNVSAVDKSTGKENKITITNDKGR
Chain of Hsc70 SBD (P11142 394-509): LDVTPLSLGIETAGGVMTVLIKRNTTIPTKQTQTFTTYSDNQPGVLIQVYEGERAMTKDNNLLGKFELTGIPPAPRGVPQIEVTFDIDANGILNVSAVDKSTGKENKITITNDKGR

For the molecule F-GVAEIGVGAYG [Cdk4-3], the solubility result in data set [1] was “limited solubility”.
On the same count and under the same terms, in the case of FATSRTDREGPN [Cdk4-1] it was “limited solubility”.
For Hsc70 SBD (from UniProt P11142), in data set [2], the Kd is 100 nM.
As to PGQLMAISVGPTTLFV [Cdk4-2-scr], the “binding to Cdc37, 19F NMR titration” value on Cdc37 is listed as “no interaction was observed”.
Consider {FAM-Ahx}-LPISTGGFQMALTPVV-OH [FAM-Ahx-LPISTGGFQMALTPVV-OH], for which the Kd in data set [3] is 29 nM.
For the molecule Ac-TGGFQMAAT [Ac-… with the Leu residue mutated to alanine], in data set [4], the binding result is on record as “binds”.
For Ac-TGGFQAALT [Ac-… with the Met residue mutated to alanine], the binding result in data set [4] is “binds”.
For the molecule Ac-GGFQMALTPVV-OH [unlabeled Cdk4-4], the Ki in data set [5] was > 100 µM.

These data come from paper PMC13262181 (Structure (London, England : 1993), 2025).
